Laboratory results reported in patent publication US20220144956A1 (published 2022).
Changes are numbered by the printed parent chain.

B1: H1 L1.34 XENP34597 (antibody, V domains shown)
VH: QLQVQESGPGLVKPSETLSLTCTVSGGSISNSYFSWGWIRQPPGKGLEWIGSFYYGEKTYYNPSLKSRATISIDTSKSQFSLKLSSVTAADTAVYYCPRGPTMIRGVIDSWGQGTLVTVSS
VL: EIVLTQSPATLSLSPGERATLSCRASQSVRSYLAWYQQKPGQAPRLLIYDASNRATGIPARFSGSGSGTDFTLTISSLQSEDFAVYYCQQRSNWPPTFGQGTKVEIK
B2: H1 L1.43 XENP34606 (antibody, V domains shown)
VH: B1 VH
VL: B1 VL with Q79E, S80P, S92N
B3: H1 L1.27 XENP34590 (antibody, V domains shown)
VH: B1 VH
VL: B1 VL with G57S, Q79E, S80P
B4: H1 L1.26 XENP34589 (antibody, V domains shown)
VH: B1 VH
VL: B1 VL with T56S, Q79E, S80P
B5: H1 L1.39 XENP34602 (antibody, V domains shown)
VH: B1 VH
VL: B1 VL with Q79E, S80P, R91Q
B6: H1 L1.19 XENP34582 (antibody, V domains shown)
VH: B1 VH
VL: B1 VL with Q42L, Q79E, S80P
B7: H1 L1.24 XENP34587 (antibody, V domains shown)
VH: B1 VH
VL: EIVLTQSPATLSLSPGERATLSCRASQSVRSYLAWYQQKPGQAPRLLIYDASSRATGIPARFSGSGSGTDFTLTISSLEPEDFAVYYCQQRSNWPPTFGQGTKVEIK
B8: H1 L1.37 XENP34600 (antibody, V domains shown)
VH: B1 VH
VL: B1 VL with Q79E, S80P, R91K
B9: H1 L1.23 XENP34586 (antibody, V domains shown)
VH: B1 VH
VL: B1 VL with N53D, Q79E, S80P
B10: H1 L1.32 XENP34595 (antibody, V domains shown)
VH: B1 VH
VL: B1 VL with S80P
B11: H1 L1.33 XENP34596 (antibody, V domains shown)
VH: B1 VH
VL: B1 VL with Q79E
B12: H1 L1.13 XENP34576 (antibody, V domains shown)
VH: B1 VH
VL: B1 VL with Y32H, Q79E, S80P
B13: H1 L1.8 XENP34571 (antibody, V domains shown)
VH: B1 VH
VL: B1 VL with R30K, Q79E, S80P
B14: H1 L1.15 XENP34578 (antibody, V domains shown)
VH: B1 VH
VL: B1 VL with A34N, Q79E, S80P
B15: H1 L1.30 XENP34593 (antibody, V domains shown)
VH: B1 VH
VL: B1 VL with D70E, Q79E, S80P
B16: H1 L1.11 XENP34574 (antibody, V domains shown)
VH: B1 VH
VL: B1 VL with S31N, Q79E, S80P
B17: H1 L1.21 XENP34584 (antibody, V domains shown)
VH: B1 VH
VL: B1 VL with D50G, Q79E, S80P
B18: H1 L1.20 XENP34583 (antibody, V domains shown)
VH: B1 VH
VL: B1 VL with D50E, Q79E, S80P
B19: H1 L1.16 XENP34579 (antibody, V domains shown)
VH: B1 VH
VL: B1 VL with A34S, Q79E, S80P
B20: H1 L1.28 XENP34591 (antibody, V domains shown)
VH: B1 VH
VL: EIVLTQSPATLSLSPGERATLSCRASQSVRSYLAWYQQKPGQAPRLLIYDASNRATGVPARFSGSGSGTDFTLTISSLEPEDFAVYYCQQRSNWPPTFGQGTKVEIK
B21: H1 L1.38 XENP34601 (antibody, V domains shown)
VH: B1 VH
VL: B1 VL with Q79E, S80P, R91S
B22: H1 L1.29 XENP34592 (antibody, V domains shown)
VH: B1 VH
VL: B1 VL with A60D, Q79E, S80P
B23: H1 L1.44 XENP34607 (antibody, V domains shown)
VH: B1 VH
VL: B1 VL with Q79E, S80P, S92T
B24: H1 L1.25 XENP34588 (antibody, V domains shown)
VH: B1 VH
VL: B1 VL with N53T, Q79E, S80P
B25: H1 L1.17 XENP34580 (antibody, V domains shown)
VH: B1 VH
VL: B1 VL with A34T, Q79E, S80P
B26: H1 L1.14 XENP34577 (antibody, V domains shown)
VH: B1 VH
VL: B1 VL with Y32N, Q79E, S80P
B27: H1 L1.36 XENP34599 (antibody, V domains shown)
VH: B1 VH
VL: B1 VL with Q79E, S80P, R91E
B28: H1 L1.18 XENP34581 (antibody, V domains shown)
VH: B1 VH
VL: B1 VL with Q42K, Q79E, S80P
B29: H1 L1.41 XENP34604 (antibody, V domains shown)
VH: B1 VH
VL: B1 VL with Q79E, S80P, S92A
B30: H1 L1.10 XENP34573 (antibody, V domains shown)
VH: B1 VH
VL: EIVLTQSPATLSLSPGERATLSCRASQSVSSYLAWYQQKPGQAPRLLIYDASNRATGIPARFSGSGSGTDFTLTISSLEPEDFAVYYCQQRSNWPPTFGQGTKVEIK
B31: H1 L1.31 XENP34594 (antibody, V domains shown)
VH: B1 VH
VL: B1 VL with S77R, Q79E, S80P
B32: H1.59 L1 XENP34515 (antibody, V domains shown)
VH: B1 VH with K58N
VL: B1 VL with Q79E, S80P
B33: H1.76 L1 XENP34532 (antibody, V domains shown)
VH: B1 VH with A90E
VL: B1 VL with Q79E, S80P
B34: H1.39 L1 XENP34495 (antibody, V domains shown)
VH: B1 VH with P42H
VL: B1 VL with Q79E, S80P
B35: H1.53 L1 XENP34509 (antibody, V domains shown)
VH: B1 VH with Y55H
VL: B1 VL with Q79E, S80P
B36: H1.68 L1 XENP34524 (antibody, V domains shown)
VH: B1 VH with K66E
VL: B1 VL with Q79E, S80P
B37: H1.69 L1 XENP34525 (antibody, V domains shown)
VH: B1 VH with K66Q
VL: B1 VL with Q79E, S80P
B38: H1.71 L1 XENP34527 (antibody, V domains shown)
VH: B1 VH with A69F
VL: B1 VL with Q79E, S80P
B39: H1.44 L1 XENP34500 (antibody, V domains shown)
VH: B1 VH with S52V
VL: B1 VL with Q79E, S80P
B40: H1.63 L1 XENP34519 (antibody, V domains shown)
VH: B1 VH with Y60H
VL: B1 VL with Q79E, S80P
B41: H1.57 L1 XENP34513 (antibody, V domains shown)
VH: B1 VH with E57S
VL: B1 VL with Q79E, S80P
B42: H1.45 L1 XENP34501 (antibody, V domains shown)
VH: B1 VH with S52Y
VL: B1 VL with Q79E, S80P
B43: H1.49 L1 XENP34505 (antibody, V domains shown)
VH: B1 VH with Y54H
VL: B1 VL with Q79E, S80P
B44: H1.73 L1 XENP34529 (antibody, V domains shown)
VH: B1 VH with I73V
VL: B1 VL with Q79E, S80P
B45: H1.46 L1 XENP34502 (antibody, V domains shown)
VH: B1 VH with F53I
VL: B1 VL with Q79E, S80P
B46: H1.70 L1 XENP34526 (antibody, V domains shown)
VH: B1 VH with S67G
VL: B1 VL with Q79E, S80P
B47: H1.66 L1 XENP34522 (antibody, V domains shown)
VH: B1 VH with N62A
VL: B1 VL with Q79E, S80P

The binders below were run against T1, human TGFßRII (antigen of the Octet experiments) (human, UniProt P37173 23-166) (assay: BLI (Octet)).
T1 sequence (P37173 23-166): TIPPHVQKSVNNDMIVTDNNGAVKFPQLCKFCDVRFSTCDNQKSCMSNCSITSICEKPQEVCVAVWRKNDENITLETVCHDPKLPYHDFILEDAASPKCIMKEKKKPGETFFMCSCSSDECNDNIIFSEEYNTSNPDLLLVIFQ

Q: For B1, which Kd is on record?
A: Its Kd is 1.61 nM.

Q: Which Kd does the source give for B2 here?
A: Its Kd is 1.08 nM.

Q: With B3 as the binder, how does the Kd read?
A: Its Kd is 0.92 nM.

Q: Which Kd does the source give for B4 here?
A: Its Kd is 0.99 nM.

Q: Which Kd does the source give for B5 here?
A: Its Kd is 21 nM.

Q: Which Kd does the source give for B6 here?
A: Its Kd is 0.905 nM.

Q: For B7, which Kd is on record?
A: Its Kd is 0.644 nM.

Q: For B8, which Kd is on record?
A: Its Kd is 2.87 nM.

Q: With B9 as the binder, how does the Kd read?
A: The Kd was 0.479 nM.

Q: For B10, which Kd is on record?
A: The Kd was 1 nM.

Q: With B11 as the binder, how does the Kd read?
A: The Kd was 0.873 nM.

Q: Which Kd does the source give for B12 here?
A: The Kd was 1.19 nM.

Q: How did the Kd turn out when B13 was run?
A: Its Kd is 1.11 nM.

Q: With B14 as the binder, how does the Kd read?
A: Its Kd is 2.48 nM.

Q: B15 was tested. Which Kd did it give?
A: The Kd was 0.668 nM.

Q: With B16 as the binder, how does the Kd read?
A: Its Kd is 0.597 nM.

Q: How did the Kd turn out when B17 was run?
A: Its Kd is 0.429 nM.

Q: How did the Kd turn out when B18 was run?
A: Its Kd is 2.24 nM.

Q: B19 was tested. Which Kd did it give?
A: Its Kd is 0.464 nM.

Q: For B20, which Kd is on record?
A: The Kd was 0.891 nM.

Q: B21 was tested. Which Kd did it give?
A: The Kd was 24.5 nM.

Q: B22 was tested. Which Kd did it give?
A: Its Kd is 0.589 nM.

Q: Which Kd does the source give for B23 here?
A: The Kd was 2.03 nM.

Q: Which Kd does the source give for B24 here?
A: The Kd was 0.921 nM.

Q: B25 was tested. Which Kd did it give?
A: Its Kd is 0.622 nM.

Q: B26 was tested. Which Kd did it give?
A: Its Kd is 1.26 nM.

Q: With B27 as the binder, how does the Kd read?
A: Its Kd is 59.3 nM.

Q: With B28 as the binder, how does the Kd read?
A: Its Kd is 0.831 nM.

Q: How did the Kd turn out when B29 was run?
A: The Kd was 2.49 nM.

Q: For B30, which Kd is on record?
A: The Kd was 10.7 nM.

Q: How did the Kd turn out when B31 was run?
A: Its Kd is 0.706 nM.

Molecular target: T1, human TGFßRII (antigen of the Octet …)
Experiment: BLI (Octet)
Remark: another data set of the same source

Q: How did the Kd turn out when B32 was run?
A: The Kd was 0.507 nM.

Q: B33 was tested. Which Kd did it give?
A: The Kd was 0.829 nM.

Q: With B34 as the binder, how does the Kd read?
A: The Kd was 0.425 nM.

Q: How did the Kd turn out when B35 was run?
A: Its Kd is 0.366 nM.

Q: Which Kd does the source give for B36 here?
A: Its Kd is 1.5 nM.

Q: Which Kd does the source give for B37 here?
A: The Kd was 1.41 nM.

Q: For B38, which Kd is on record?
A: Its Kd is 0.588 nM.

Q: For B39, which Kd is on record?
A: Its Kd is 2.95 nM.

Q: How did the Kd turn out when B40 was run?
A: Its Kd is 5.28 nM.

Q: For B41, which Kd is on record?
A: The Kd was 7.71 nM.

Q: For B42, which Kd is on record?
A: Its Kd is 1.01 nM.

Q: With B43 as the binder, how does the Kd read?
A: Its Kd is 0.338 nM.

Q: How did the Kd turn out when B44 was run?
A: The Kd was 0.713 nM.

Q: How did the Kd turn out when B45 was run?
A: Its Kd is 3.2 nM.

Q: B46 was tested. Which Kd did it give?
A: Its Kd is 0.789 nM.

Q: With B47 as the binder, how does the Kd read?
A: Its Kd is 0.623 nM.
